For assay [1], the target named is α-myc (anti-myc antibody coated as second antigen). Kind of assay: phage ELISA.
Assay [2] has as its target His (control coat of Table 2). The assay is described as follows: phage ELISA. A general note: In an ELISA, binding on a coated surface is turned into a signal by an enzyme label.

B1: scFv-phage clone 9E (scFv, part only; not given: scFv linker and domain order, part only)
scFv, part: QVQLVESGGGVVQPGRSLRLSCAASGFTFSSYGMHWVRQAPGKGLEWVAVISYDGNNKYYVDSVKGRFTISRDNSKNTLYLQMNSLRSEDTAVYYCARDSGSYLDWYFDLWGRGTLVTVSSQPPSVSVAPGKTARIACGGGNIGDKSVHWYQQKPGQAPVLVIFYDSDRPSGIPKRLSGSNSGNTATLTISRVEAGDEGDYYCQVWDSSSDRPVFGGGTKLTVLG
On to B1, for which the OD490 in assay [1] came to 2.01; in assay [2], 0.043.

B2: scFv-phage clone 10D (scFv)
scFv: QVQLVQSGGGVVQPGRSLRLSCAASGFTFSSYGMHWVRQAPGKGLEWVAVISYDGSNKYYADSVKGRFTISRDNSKNTLYLQMNSLRSEDTAVYYCARDKRAAFDIWGQGKMVTVSSGLGGLGGGGSGGGGSGGSSGVGSSYELTQAPSLSVSPGQTANIICSGDNLRTKYVSWYQQKPGQSPLLVIYQDTRRPSGIPARFSGSNSGNTATLTISGTQTERESTYYCMTWDVDTTSMIFGGGTKLTVL
In the case of B2, the OD490 in assay [1] worked out at 3.02.

B3: scFv-phage clone 12D (scFv, part only; not given: scFv linker and domain order, part only)
scFv, part: QVQLVQSGGGVVQPGRSLRLSCVASAFTFSRYGMHWVRQAPGKGLEWVALISYDGSSEYYADSVKGRFNISRDNSKNTVYLQMNSLRAEDTAVYYCVKDGLAAKLGHWGQGTLVTVSSQAPSLSVSPGQTANIICSGDNLRTKYVSWYQQKPGQSPLLVIYQDTRRPSGIPARFSGSNSGNTATLTISGTQTERESTYYCMTWDVDTTSMIFGGGTKLTVLG
As for B3, the OD490 in assay [1] is 0.888; in assay [2], 0.049.

Values taken from US20160108118A1.
